# Measurements: IntAct's records for PubMed 20974977
# B1: Interleukin-27 subunit alpha (Homo sapiens), Q8NEV9 (parent)
# chain: MGQTAGDLGWRLSLLLLPLLLVQAGVWGFPRPPGRPQLSLQELRREFTVSLHLARKLLSEVRGQAHRFAESHLPGVNLYLLPLGEQLPDVSLTFQAWRRLSDPERLCFISTTLQPFHALLGGLGTQGRWTNMERMQLWAMRLDLRDLQRHLRFQVLAAGFNLPEEEEEEEEEEEEERKGLLPGALGSALQGPAQVSWPQLLSTYRLLHSLELVLSRAVRELLLLSKAGHSVWPLGFPTLSPQP
# partner: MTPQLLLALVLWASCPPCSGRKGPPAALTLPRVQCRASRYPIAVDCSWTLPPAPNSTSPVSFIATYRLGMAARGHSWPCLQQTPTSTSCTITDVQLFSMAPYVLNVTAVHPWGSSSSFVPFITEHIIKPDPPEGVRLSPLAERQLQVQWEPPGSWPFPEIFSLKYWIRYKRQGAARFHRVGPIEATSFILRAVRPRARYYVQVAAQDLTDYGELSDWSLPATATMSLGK
# B2: Interleukin-27 subunit beta (Homo sapiens), Q14213 (parent)
# chain: B1 partner
# partner: B1 chain
# Variants of: B1
# Settings: with il27b_human EBI3, Q14213
row,Variant,effect of a mutation on the interaction
1,W97A,disrupting interaction
2,W197A,increasing interaction

# Variants of: B2
# Settings: with il27a_human IL27, Q8NEV9
row,Variant,effect of a mutation on the interaction
1,E159A,decreasing interaction
2,D210A,disrupting interaction
3,F97A,decreasing interaction
